Our source for the Count values is patent US20240207421A1, “NERVE TARGETING PEPTIDES AND METHODS OF USE” (ALUME BIOSCIENCES, INC., priority 2020, published 2024).

Human MPZ, sequence (P25189 30-153 limits assumed): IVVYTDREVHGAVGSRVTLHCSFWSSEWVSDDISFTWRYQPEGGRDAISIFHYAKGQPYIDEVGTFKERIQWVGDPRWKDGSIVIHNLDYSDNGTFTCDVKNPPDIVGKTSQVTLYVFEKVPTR

The target of one experiment is Human Myelin PLP (human) (UniProt P60201). In words: phage display, NGS count.
Human Myelin PLP (human), sequence (P60201 2-277 limits assumed): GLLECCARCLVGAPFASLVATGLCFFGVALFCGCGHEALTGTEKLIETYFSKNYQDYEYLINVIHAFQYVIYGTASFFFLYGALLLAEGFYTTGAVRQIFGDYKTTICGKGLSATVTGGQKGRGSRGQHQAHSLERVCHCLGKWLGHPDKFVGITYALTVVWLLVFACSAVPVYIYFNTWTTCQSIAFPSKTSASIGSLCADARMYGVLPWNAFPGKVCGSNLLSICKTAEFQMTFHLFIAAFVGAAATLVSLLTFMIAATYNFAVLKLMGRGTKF
Settings: not given
LPSHASI (peptide) showed a Count of 26.
The substance NDASTVS (peptide) had a Count of 28.
GHLQSLF (peptide) registered a Count of 26.
For the substance YTWTPSR (peptide), the Count turned out to be 28.
SAQSRSF (peptide) showed a Count of 26.
The substance SWDVLEL (peptide) returned a Count of 31.
Substance VPGHISG (peptide) yielded a Count of 27.
In turn, AVVAMNK (peptide) yielded a Count of 28.
IHHLESS (peptide) had a Count of 32.
The substance AHQSSVT (peptide) gave a Count of 42.
Substance SLPGYRH (peptide) yielded a Count of 28.
The substance MKIMPMD (peptide) gave a Count of 26.
GPAAVII (peptide): the Count amounted to 29.
On the same count and under the same terms, with TQPRYPS (peptide) the figure was 28; with SVMWMTP (peptide), 29.
For the substance TTTIADM (peptide), the Count was 26.
Take TMPIKAM (peptide): the Count turned out to be 27.
In the case of DRHEGHR (peptide), the Count stood at 26.
As to TGISSTP (peptide), the Count was determined as 27.
WSRISVD (peptide) gave a Count of 26.
In the case of SLNRGGA (peptide), the Count amounted to 28.
IDRVRGL (peptide) gave a Count of 29.
In turn, EVLYPNN (peptide) registered a Count of 27.
For FRIDKSM (peptide), the Count came out at 26.
The same measure, in the same setting: with RLQPEPT (peptide) the figure was 33.
Same read-out and setting: the result for QPNMLKP (peptide) reads 33; that for LHQTYRP (peptide), 27; that for WSPHRSF (peptide), 31.
With GIPSSKN (peptide), the Count was 28.
QRRSVIL (peptide) gave a Count of 31.
In the case of VSSQEQA (peptide), the Count was found to be 34.
The same measure, in the same setting: with VGYRSAS (peptide) the figure was 28; with VTGPGTP (peptide), 26.
VRTSMNH (peptide) yielded a Count of 28.
YSQAISA (peptide) returned a Count of 27.
VSASWMP (peptide) had a Count of 27.
Take LMQKPSI (peptide): the Count is 29.
The same measure, in the same setting: the result for LPLRLHA (peptide) reads 31; that for IRPTHNG (peptide), 27.
Still for that read-out and setting: the result for GSAWKKH (peptide) reads 44.
The substance EKSTTVA (peptide) showed a Count of 30.
As for FSLDRDG (peptide), the Count came out at 29.
On the same count and under the same terms, the result for GNVFQTS (peptide) reads 31.
Consider SALISTR (peptide), for which the Count stood at 32.
Substance FSTPTNV (peptide) yielded a Count of 29.
As to QLPRNNL (peptide), the Count was 28.
The same measure, in the same setting: with WNTADRL (peptide) the figure was 34; with YSDTYKH (peptide), 30.
Consider ALFQERK (peptide), for which the Count was determined as 27.
Consider KPSASIY (peptide), for which the Count is 26.
In the case of YSSRLTA (peptide), the Count came out at 29.
NVFSATP (peptide) returned a Count of 31.
The same measure, in the same setting: with GWSTAIR (peptide) the figure was 29; with TDVEMVP (peptide), 40.
Still for that read-out and setting: with AQASSAR (peptide) the figure was 27.
Substance WHYTPSM (peptide) returned a Count of 26.
As to WSPHGYK (peptide), the Count turned out to be 27.
Same read-out and setting: the result for TRASYPQ (peptide) reads 32; that for GKSYSQI (peptide), 31.
The same measure, in the same setting: with EPSSFTF (peptide) the figure was 31; with TLWAQKT (peptide), 28.
Still for that read-out and setting: the result for SVVYQNS (peptide) reads 26; that for SVEKYSK (peptide), 33; that for DGSRDLV (peptide), 30.
The substance SVLPDKL (peptide) showed a Count of 28.
Same read-out and setting: the result for ASLTLAL (peptide) reads 26; that for SLPSLLP (peptide), 26; that for SGLHYAL (peptide), 32.
SGVATYT (peptide) displayed a Count of 31.
Consider MPHAPVQ (peptide), for which the Count came out at 37.
With IIPPTSV (peptide), the Count is 31.
HKAPLGT (peptide) returned a Count of 29.
As to HLHTRPT (peptide), the Count amounted to 27.
As to TFPERLR (peptide), the Count came out at 31.
LPVKNLL (peptide) gave a Count of 26.

Another experiment has as its system Human MPZ. In words: Phage display library screening (Example 2, Python script analysis), binding to Human MPZ. To be noted: combined unique sequence count, Python/R script analysis. The procedure:
Phage display library screens were used to identify peptides that bind to target proteins (including specific laminin trimers) that are expressed in human nerves, as described in Table 3. These screens were also carried out to identify peptides that could bind selectively to nerves versus muscle. Such peptides could therefore be useful for systemic in-vivo labeling of nerves during fluorescence assisted surgery. Specifically, m 13 phage libraries expressing 7 or 12 random amino acid peptides, or a cyclic peptide CX7C, on the N-terminus of the minor coat protein pIII (New England Biolabs; NEB) were processed through multiple rounds of selection for binding to target proteins expressed in nerves, or to excised human nerves, nerve extracts, or muscle, as described further below.
For screening against the specified target proteins in Table 1, including LN211, LN411, LN421, and LN521, the phage library was processed by up to 4 binding and wash cycles. For selection, phage libraries were incubated for up to 24 hours at 4° C. in 96 well plates that had been coated with one of the target proteins. Plates were then washed with PBS and phage were eluted using 0.2M glycine pH 2.0. Phage supernatants where then neutralized with Tris pH 9.0 prior to plating on TGI bacteria and LB agar plates. Colonies were counted to determine titer followed by DNA preparation of pools of phage and NextGen sequencing. After rounds of selection, phage were pooled and amplified for iterative selection. Phage that were bound at each round were sequenced. NextGen sequencing of pools after 2, 3 and 4 rounds of selection was used to isolate candidate sequences that were analyzed further to identify those that specifically bound each unique target protein.
Python Script Analysis: For all NEB sequence datasets, a python script was used to translate, trim, and filter the peptide sequences. The script translated the nucleotide sequences, translating amber codons as glutamine in peptide sequences, and then trimmed the end sequences that come from the vector. Secondly, the script combined the unique counts of trimmed peptides with identical sequences. […] Another python script was used to group peptides from different assays according to protein target (Myelin Protein Zero, Myelin Proteolipid Protein, Myelin Basic Protein, and Nidogen-2) and also combine the unique sequence counts for each peptide. An R script was written to merge the peptide sequences from different data files and determine peptides specific for each protein target but absent from different protein binding datasets. Peptide sequences were ranked by unique sequence count.
Regarding CYSSVADMC (Human MPZ-binding peptide), the Count turned out to be 43.
Turning to CEDRQRSMC (Human MPZ-binding peptide), the Count is on record as 40.
Same read-out and setting: the result for LVNPFPE (Human MPZ-binding peptide) reads 39; that for MIHTRQT (Human MPZ-binding peptide), 41.
The same measure, in the same setting: the result for KRNLWDI (Human MPZ-binding peptide) reads 40; that for CQKWFTFAC (Human MPZ-binding peptide), 39.
Still for that read-out and setting: the result for FMSDVDH (Human MPZ-binding peptide) reads 37; that for WMTNLDP (Human MPZ-binding peptide), 43.
As for SVAYVPV (Human MPZ-binding peptide), the Count amounted to 46.
With CPDAARNSC (Human MPZ-binding peptide), the Count turned out to be 43.
As to FALPAGL (Human MPZ-binding peptide), the Count was 41.
Same read-out and setting: with YEGERGA (Human MPZ-binding peptide) the figure was 39; with STHEWRT (Human MPZ-binding peptide), 45.
Regarding “YTPNWHFRWMPA (Human MPZ-binding peptide)”, the Count is 60.
As for ISSVTVV (Human MPZ-binding peptide), the Count is on record as 37.
As for CERIGPREC (Human MPZ-binding peptide), the Count is given as 39.
For the substance AWTMRAS (Human MPZ-binding peptide), the Count turned out to be 39.
The same measure, in the same setting: the result for LVLQTTP (Human MPZ-binding peptide) reads 37; that for DRYLLNQ (Human MPZ-binding peptide), 40; that for CRVGVTSAC (Human MPZ-binding peptide), 41.
Take “AYLEDWRSMSTR (Human MPZ-binding peptide)”: the Count is reported as 46.
Take AMSNLSY (Human MPZ-binding peptide): the Count is recorded as 45.
For the substance GLWRHTM (Human MPZ-binding peptide), the Count stood at 40.
As to NTASMTT (Human MPZ-binding peptide), the Count was determined as 38.
On to GSWSSGF (Human MPZ-binding peptide), for which the Count is reported as 52.
Regarding FSTTGRG (Human MPZ-binding peptide), the Count is reported as 39.
For the substance “GMVSPHHSVYRH (Human MPZ-binding peptide)”, the Count was found to be 51.
